Results from PMC10995192 (Nature Communications, 2024).

Columns and labels:
[1] = molecular target: SNS-101, fully human monoclonal IgG1 kappa antibody against VISTA (human); experiment: SPR; SNS-101 captured on IgG capture chip, VISTA-His as analyte (0-240 nM), 25 C, PBS 0.05% Tween 20, pH 6.4; 1:1 Langmuir MTL fit
[2] = molecular target: SNS-101, fully human monoclonal IgG1 kappa antibody against VISTA (human); experiment: SPR; SNS-101 captured on IgG capture chip, VISTA-His as analyte (0-240 nM), 25 C, PBS 0.05% Tween 20, pH 6.6; 1:1 Langmuir MTL fit
[3] = molecular target: SNS-101, fully human monoclonal IgG1 kappa antibody against VISTA (human); experiment: SPR; SNS-101 captured on IgG capture chip, VISTA-His as analyte (0-480 nM), 25 C, PBS 0.05% Tween 20, pH 7.4; 1:1 Langmuir MTL fit
[4] = molecular target: SNS-101, fully human monoclonal IgG1 kappa antibody against VISTA (human); experiment: SPR; SNS-101 captured on IgG capture chip, VISTA-His as analyte (0-480 nM), 25 C, PBS 0.05% Tween 20, pH 7.0; 1:1 Langmuir MTL fit
[5] = molecular target: SNS-101, fully human monoclonal IgG1 kappa antibody against VISTA (human); experiment: SPR; SNS-101 captured on IgG capture chip, VISTA-His as analyte (0-30 nM), 25 C, PBS 0.05% Tween 20, pH 5.8; 1:1 Langmuir MTL fit
[6] = molecular target: SNS-101, fully human monoclonal IgG1 kappa antibody against VISTA (human); experiment: SPR; SNS-101 captured on IgG capture chip, VISTA-His as analyte (0-30 nM), 25 C, PBS 0.05% Tween 20, pH 6.0; 1:1 Langmuir MTL fit
[7] = molecular target: SNS-101, fully human monoclonal IgG1 kappa antibody against VISTA (human); experiment: SPR; SNS-101 captured on IgG capture chip, VISTA-His as analyte (0-240 nM), 25 C, PBS 0.05% Tween 20, pH 6.8; 1:1 Langmuir MTL fit
[8] = molecular target: SNS-101, fully human monoclonal IgG1 kappa antibody against VISTA (human); experiment: SPR; SNS-101 captured on IgG capture chip, VISTA-His as analyte (0-480 nM), 25 C, PBS 0.05% Tween 20, pH 7.2; 1:1 Langmuir MTL fit
[9] = molecular target: SNS-101, fully human monoclonal IgG1 kappa antibody against VISTA (human); experiment: SPR; SNS-101 captured on IgG capture chip, VISTA-His as analyte (0-30 nM), 25 C, PBS 0.05% Tween 20, pH 6.2; 1:1 Langmuir MTL fit
[10] = molecular target: SNS-101, fully human monoclonal IgG1 kappa anti-VISTA antibody (human); experiment: SPR; SNS-101 captured on IgG capture chip, VISTA-His (0-480 nM) as analyte; pH 7.0, PBS + 0.05% Tween 20, 25 °C; 1:1 Langmuir MTL fit; pH series
[11] = molecular target: SNS-101, fully human monoclonal IgG1 kappa anti-VISTA antibody (human); experiment: SPR; panel of VISTA-His variants and wild type as analytes over captured SNS-101; pH 5.8 (PBS, 0.05% Tween-20), 25 °C
[12] = molecular target: PSGL-1-19mer-Fc (19 N-terminal residues of human PSGL-1 fused to human IgG1-Fc) (human) (UniProt Q14242); experiment: SPR; PSGL-1-19mer-Fc captured on IgG capture chip, VISTA-His (0-960 nM) as analyte; pH 6.0, PBS + 0.05% Tween-20; KD from equilibrium analysis
PSGL-1-19mer-Fc (19 N-terminal residues of human PSGL-1 fused to human IgG1-Fc) (human), sequence (Q14242 42-412): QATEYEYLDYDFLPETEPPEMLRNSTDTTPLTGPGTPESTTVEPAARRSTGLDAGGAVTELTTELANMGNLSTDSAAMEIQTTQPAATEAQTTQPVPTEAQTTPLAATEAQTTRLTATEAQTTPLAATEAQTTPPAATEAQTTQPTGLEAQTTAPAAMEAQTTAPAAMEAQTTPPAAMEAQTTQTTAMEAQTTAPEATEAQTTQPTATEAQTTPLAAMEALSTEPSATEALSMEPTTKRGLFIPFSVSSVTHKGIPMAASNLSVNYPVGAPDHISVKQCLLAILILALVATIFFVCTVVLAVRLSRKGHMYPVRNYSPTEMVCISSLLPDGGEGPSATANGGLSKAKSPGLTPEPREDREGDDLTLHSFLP

[13] = molecular target: SNS-101, fully human monoclonal IgG1 kappa anti-VISTA antibody (human); experiment: SPR; SNS-101 captured on IgG capture chip, VISTA-His (0-30 nM) as analyte; pH 6.0, PBS + 0.05% Tween 20, 25 °C; 1:1 Langmuir MTL fit; pH series
[14] = molecular target: SNS-101, fully human monoclonal IgG1 kappa anti-VISTA antibody (human); experiment: SPR; SNS-101 captured on IgG capture chip, VISTA-His (0-240 nM) as analyte; pH 6.8, PBS + 0.05% Tween 20, 25 °C; 1:1 Langmuir MTL fit; pH series
[15] = molecular target: SNS-101, fully human monoclonal IgG1 kappa anti-VISTA antibody (human); experiment: SPR; SNS-101 captured on IgG capture chip, VISTA-His (0-480 nM) as analyte; pH 7.4, PBS + 0.05% Tween 20, 25 °C; 1:1 Langmuir MTL fit; pH series
[16] = molecular target: SNS-101, fully human monoclonal IgG1 kappa anti-VISTA antibody (human); experiment: SPR; SNS-101 captured on IgG capture chip, VISTA-His (0-30 nM) as analyte; pH 5.8, PBS + 0.05% Tween 20, 25 °C; 1:1 Langmuir MTL fit; pH series
[17] = molecular target: SNS-101, fully human monoclonal IgG1 kappa anti-VISTA antibody (human); experiment: SPR; SNS-101 captured on IgG capture chip, VISTA-His (0-30 nM) as analyte; pH 6.2, PBS + 0.05% Tween 20, 25 °C; 1:1 Langmuir MTL fit; pH series
[18] = molecular target: SNS-101, fully human monoclonal IgG1 kappa anti-VISTA antibody (human); experiment: SPR; SNS-101 captured on IgG capture chip, VISTA-His (0-240 nM) as analyte; pH 6.4, PBS + 0.05% Tween 20, 25 °C; 1:1 Langmuir MTL fit; pH series
[19] = molecular target: SNS-101, fully human monoclonal IgG1 kappa anti-VISTA antibody (human); experiment: SPR; SNS-101 captured on IgG capture chip, VISTA-His (0-240 nM) as analyte; pH 6.6, PBS + 0.05% Tween 20, 25 °C; 1:1 Langmuir MTL fit; pH series
[20] = molecular target: SNS-101, fully human monoclonal IgG1 kappa anti-VISTA antibody (human); experiment: SPR; SNS-101 captured on IgG capture chip, VISTA-His (0-480 nM) as analyte; pH 7.2, PBS + 0.05% Tween 20, 25 °C; 1:1 Langmuir MTL fit; pH series
[21] = molecular target: T1, VISTA-His H98A/H100A/H154A/H155A/R159A (human, UniProt Q9H7M9, H98A | H100A | H154A | H155A | R159A); experiment: SPR; panel of VISTA-His variants and wild type as analytes over captured SNS-101; pH 5.8 (PBS, 0.05% Tween-20), 25 °C; details: both partners purified
T1 construct: VISTA, human; probably the extracellular domain; source: Expi293, purified (Ni-NTA)

[22] = molecular target: T2, C-terminal biotinylated hVISTA-Fc fusion protein (R&D Systems AVI7126-050) (human, UniProt Q9H7M9 33-194, biotin, C-terminal); experiment: ELISA; partner proteins coated at 5 µg/ml, biotinylated hVISTA-Fc serially diluted in 1% NFDM in PBS at pH 6.0; HRP-streptavidin; details: both partners purified
T2 construct: VISTA, human; source: bought: R&D Systems AVI7126-050
T2 sequence (looked up): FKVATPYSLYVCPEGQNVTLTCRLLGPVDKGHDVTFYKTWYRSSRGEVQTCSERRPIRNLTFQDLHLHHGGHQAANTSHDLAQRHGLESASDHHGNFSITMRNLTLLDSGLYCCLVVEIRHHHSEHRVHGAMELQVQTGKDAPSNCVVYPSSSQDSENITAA

VISTA-His (human VISTA, V-domain immunoglobulin suppressor of T-cell activation, with His tag) (from UniProt Q9H7M9 33-311) (natural protein)
Kd [1]: 5.96 nM | koff [1]: 0.00321 s⁻¹ | kon [1]: 539000 M⁻¹ s⁻¹ | Kd [2]: 18.5 nM | koff [2]: 0.00566 s⁻¹ | kon [2]: 306000 M⁻¹ s⁻¹ | koff [3]: 0.0308 s⁻¹ | kon [3]: 87200 M⁻¹ s⁻¹ | Kd [4]: 77 nM | koff [4]: 0.0101 s⁻¹ | kon [4]: 131000 M⁻¹ s⁻¹ | koff [5]: 0.00129 s⁻¹ | kon [5]: 3.68e+06 M⁻¹ s⁻¹ | Kd [6]: 0.779 nM | koff [6]: 0.00213 s⁻¹ | kon [6]: 2.74e+06 M⁻¹ s⁻¹ | Kd [7]: 40.1 nM | koff [7]: 0.00842 s⁻¹ | kon [7]: 210000 M⁻¹ s⁻¹ | Kd [8]: 134 nM | koff [8]: 0.0147 s⁻¹ | kon [8]: 110000 M⁻¹ s⁻¹ | Kd [9]: 1.78 nM | koff [9]: 0.00219 s⁻¹ | kon [9]: 1.23e+06 M⁻¹ s⁻¹

VISTA-His (wild-type human VISTA) (from UniProt Q9H7M9 33-311) (natural protein)
Kd [10]: 77 nM | koff [10]: 0.0101 s⁻¹ | kon [10]: 131000 M⁻¹ s⁻¹ | Kd [11]: 0.7 nM | koff [11]: 0.0022 s⁻¹ | kon [11]: 3.2e+06 M⁻¹ s⁻¹ | Kd [12]: 600 nM | Kd [13]: 0.779 nM | koff [13]: 0.00213 s⁻¹ | kon [13]: 2.74e+06 M⁻¹ s⁻¹ | Kd [14]: 40.1 nM | koff [14]: 0.00842 s⁻¹ | kon [14]: 210000 M⁻¹ s⁻¹ | koff [15]: 0.0308 s⁻¹ | kon [15]: 87200 M⁻¹ s⁻¹ | koff [16]: 0.00129 s⁻¹ | kon [16]: 3.68e+06 M⁻¹ s⁻¹ | Kd [17]: 1.78 nM | koff [17]: 0.00219 s⁻¹ | kon [17]: 1.23e+06 M⁻¹ s⁻¹ | Kd [18]: 5.96 nM | koff [18]: 0.00321 s⁻¹ | kon [18]: 539000 M⁻¹ s⁻¹ | Kd [19]: 18.5 nM | koff [19]: 0.00566 s⁻¹ | kon [19]: 306000 M⁻¹ s⁻¹ | Kd [20]: 134 nM | koff [20]: 0.0147 s⁻¹ | kon [20]: 110000 M⁻¹ s⁻¹

B1: SNS-101, fully human monoclonal IgG1 kappa anti-VISTA antibody (antibody, V domains shown)
VH: EVQLVESGGGLVQPGGSLRLSCAASGFTFDDYSMNWVRQAPGKGLEWVSYISSDADTIYYADSVKGRFTISRDNAKNSLYLQMNSLRAEDTAVYYCAREAGGVLGRVDFQHWGQGTLVTVSS
VL: DIQLTQSPSSLSASVGDRVTITCQASQDISNYLNWYQQKPGKAPKLLIYDASNLGTGVPSRFSGSGSGTDFTFTISSLQPEDIATYYCQQADFVPPWTFGGGTKVEIK
notes: the Fab part is in PDB 8TBQ; human IgG1 heavy chain; the light chain is in PDB 8TBQ; human kappa light chain; IgG1 kappa; captured on an IgG capture sensor chip in SPR; source: ExpiCHO, transient transfection, purified (Protein A)
Kd [21]: > 960 nM

B2: hSyndecan-2 (R&D Systems 2965-SD) (natural protein, human, UniProt P34741 19-144, looked up)
chain: ESRAELTSDKDMYLDNSSIEEASGVYPIDDDDYASASGSGADEDVESPELTTSRPLPKILLTSAAPKVETTTLNIQNKIPAQTKSPEETDKEKVHLSDSERKMDPAEEDTNVYTEKHSDSLFKRTE
notes: Syndecan-2, human; source: bought: R&D Systems 2965-SD
binding result [22]: binds
